Patent US20100184959A1 (AstraZeneca / MedImmune, published 2010)

Biological target: T1, human C1q (human, UniProt P02745 23-245; P02746 28-253; P02747 29-245)
T1 construct: Human C1q (Sigma) in the ELISA; hC1q coated at 100 nM in the RIA; also called hC1q
Assay: RIA, 35S-labelled Fc on coated C1q
Excerpt: IgG1 Fc variants arising from round three outputs of Fcγ1 selections against human C1q using ribosome display, were screened for binding using the primary RIA as described in Jermutus et al. (2001, PNAS 98(1): 75-80). In brief, the Fc region from the plasmid for each variant (96 well format) was PCR amplified to produce a linear DNA template. This template was gel purified and reamplified attaching the T7 promoter sequence for T7 directed in vitro transcription and the resulting mRNA purified on G25 Sephadex columns. For each variant, in vitro translations in the presence of 35S-labelled methionine was performed at 37° C. for 40 mins. The translations were stopped with PBS with 0.05% Tween 20. The translation mixture was incubated on a plate coated with 100 nM hC1q for 2 hours at room temperature. Plates were washed three times in PBS with 0.05% Tween 20 and three times in PBS. The remaining radioactivity was eluted with 0.1M triethylamine and quantified by liquid scintillation counting.

T1 sequence (P02745 23-245 limits assumed, chain 1 of 3): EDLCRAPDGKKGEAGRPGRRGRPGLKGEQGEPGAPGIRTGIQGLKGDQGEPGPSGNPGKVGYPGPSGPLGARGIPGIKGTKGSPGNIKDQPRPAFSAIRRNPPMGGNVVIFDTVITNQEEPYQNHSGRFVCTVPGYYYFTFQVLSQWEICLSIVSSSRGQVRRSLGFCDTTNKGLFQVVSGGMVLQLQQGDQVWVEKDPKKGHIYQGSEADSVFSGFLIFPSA
T1 sequence (P02746 28-253 limits assumed, chain 2 of 3): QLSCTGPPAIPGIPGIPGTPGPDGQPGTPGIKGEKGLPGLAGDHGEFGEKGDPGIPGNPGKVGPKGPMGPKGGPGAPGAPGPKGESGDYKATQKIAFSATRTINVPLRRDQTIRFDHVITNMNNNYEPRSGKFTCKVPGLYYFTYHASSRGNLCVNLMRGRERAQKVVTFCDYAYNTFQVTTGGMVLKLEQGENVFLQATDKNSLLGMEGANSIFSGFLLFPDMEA
T1 sequence (P02747 29-245 limits assumed, chain 3 of 3): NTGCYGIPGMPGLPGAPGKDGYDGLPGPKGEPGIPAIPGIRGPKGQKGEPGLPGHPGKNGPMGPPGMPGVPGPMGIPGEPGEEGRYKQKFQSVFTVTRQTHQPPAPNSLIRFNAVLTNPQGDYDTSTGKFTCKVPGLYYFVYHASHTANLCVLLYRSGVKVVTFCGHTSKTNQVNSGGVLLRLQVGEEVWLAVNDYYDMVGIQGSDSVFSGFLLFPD

B1: Fc polypeptide variant 2F01 (Fcγ1, in vitro translated) (other)
chain: AHTCPPCPAPELLGGPPVFLFPPKPKDTLMIPRTPEVTCVVVDVNHEDPEVKFNWYVDGVEVRNAKTKPREEQYNSTYRVVSVLTVLHQDWLSGKEYKCKVSNKALPAPIEKTISKAKGQPREPQVYTLPPSREEMTKNQVSLTCLVKGLYPSDITVEWESNGQPENDCKTTPPVLDSDGSSFLYSKLTVDKSRWQQGNVFSCSVMHKAPHNHYTQKSLSLSPGE
notes: Fc region only, in vitro translated with 35S-methionine for RIA
With B1 the “RIA for C1q” value was 1.5 fold over wild-type.
